Results reported in patent US11655301B2, “Carrier-binding agent compositions and methods of making and using the same” (Mayo Foundation for Medical Education and Research, priority 2016, dated 2023).

Columns and labels:
ABX [1] = biological target: T1, ABX (Homo sapiens, UniProt P02768); test: Binding of cisplatin to ABX (free cisplatin in supernatant by HPLC); format: physicochemical; details: ABX 5 mg/ml, cisplatin 0.5 mg/ml, room temperature, 30 minutes
T1 construct: purchased Celgene Corporation, Summit, N.J

[2] = tested on: A375 human melanoma cells; test: A375 xenograft, BEV pretreatment follow up study; format: in vivo, athymic nude mice; details: day 7 and day 10 post treatment; BEV 12 mg/kg, ABX 30 mg/kg
Text: Data is represented at day 7-post and day 10-post treatment as tumor volume in mm^3. FIGS. 11A-E track tumor size over 10 days. […] See also FIG. 11 F and FIG. 11 G.

[3] = tested on: A375 human melanoma cells; test: A375 human melanoma xenograft in athymic nude mice; format: in vivo; details: BEV 12 mg/kg, ABX 30 mg/kg, tumors about 700 mm^3 at treatment
Protocol: In vivo experiments were performed at least 2 times. The number of mice required for those experiments was determined by power analysis. Mouse tumors were measured 2-3 times/week and mice were sacrificed when the tumor was 10% by weight. […] The end point of the mouse studies was median survival. Kaplan-Meier curves were generated and Mantle-Cox test was performed to determine significance of median survival between treatment groups. The in vitro results presented are representative of at least 5 repeated experiments. Statistical analyses of in vitro and in vivo percent change from baseline experiments were done using the Student's t-test.
(§1) To test tumor efficacy, 1×10^6 A375 human melanoma cells were implanted into the right flank of athymic nude mice (Harlan Sprague Dawley, Indianapolis, Ind.). […] Tumor size was monitored 3 times/week and tumor volume was calculated with the following equation: (length×width^2)/2. Mice were sacrificed when the tumor size equaled 10% of the mouse body weight or about 2500 mm^3. The day 7 percent change from baseline was calculated as follows: [(tumor size on treatment day-tumor size on day 7)/tumor size on treatment day]×100.
The ABC complex was tested in the A375 melanoma xenotransplant model relative to each drug alone and AB160.
The effect of AB225 was assayed in animals as set forth above.

ABX [4] = biological target: T1, ABX; test: Bio-Layer Interferometry (BLItz) binding of antibody to ABX; details: for binding affinity to ABX (in words): BLItz; for dependence of binding affinity to ABX on pH / temperature: pH 3, 5, 7, 9, BEV also RT, 37° C., 58° C.
Protocol: The association and dissociation constants were calculated using the BLItz software.

CD20 = biological target: T2, CD20 (Homo sapiens, UniProt P11836); test: Blocking of fluorescent anti-human CD20 labeling of Daudi cells (flow cytometry); format: cell-based; details: Daudi cells pretreated before CD20 labeling
T2 construct: endogenous in cells; host or cells: Daudi human B-cell lymphoma cells
T2 sequence (P11836 1-297): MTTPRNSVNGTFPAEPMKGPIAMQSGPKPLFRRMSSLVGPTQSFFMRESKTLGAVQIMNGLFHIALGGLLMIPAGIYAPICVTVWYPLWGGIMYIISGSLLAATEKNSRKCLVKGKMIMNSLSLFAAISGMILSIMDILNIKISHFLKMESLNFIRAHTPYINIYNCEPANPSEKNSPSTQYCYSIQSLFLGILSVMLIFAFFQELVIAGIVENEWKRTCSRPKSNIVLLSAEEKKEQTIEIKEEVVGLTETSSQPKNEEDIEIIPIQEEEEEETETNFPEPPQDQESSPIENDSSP
Text: CD20 positive Daudi lymphoma cells were labeled with fluorescent tagged anti-human CD20 or isotype matched control in panel F and A, respectively, and analyzed by flow cytometry.

[5] = tested on: Daudi human lymphoma cells; test: Daudi lymphoma xenotransplant in athymic nude mice; format: in vivo; details: ABX 30 mg/kg, rituximab 12 mg/kg
Protocol: Tumor response was determined at day 7 post-treatment by the percent change in tumor size from the first day of treatment.
as §1
On day 7 post treatment, tumors were measured and the percent change in tumor size from baseline was calculated.

Compound	cisplatin remaining in the supernatant (ABX [1]) [%]	average tumor volume [2]	median survival [3] [days]	binding affinity to ABX (in words) (ABX [4])	dependence of binding affinity to ABX on pH / temperature (ABX [4])	blocking of CD20 binding of fluorescent anti-CD20 (CD20)	median survival [5] [days]
N.N.[Cl][Pt][Cl] [cisplatin]	40						
bevacizumab		not therapeutic	14	picomolar range	both pH- and temperature-dependent		
rituximab				picomolar range	decreased with higher pH	specifically blocked	12
